Assay results reported in US20160195541A1.
Several values for one entry are separate records, joined by “and”; a condition that tells them apart may be missing. Identical values can stand only once. Each block holds one molecule with its values, some of them ahead of it.

Legend:
[1] = target: aggregated human IgG (aggregated Beriglobin, aggregated fraction isolated by size exclusion chromatography) (human); test: FACS competition on Raji cells, mean of 25 experiments
[2] = target: aggregated human IgG (aggregated Beriglobin, aggregated fraction isolated by size exclusion chromatography) (human); test: apparent KD, FACS competition on Raji cells (Example 1), as told in the description
[3] = target: aggregated human IgG (aggregated Beriglobin, aggregated fraction isolated by size exclusion chromatography) (human); test: FACS competition on Raji cells (FACS007), inhibition of aggregated IgG binding to cell FcγRIIB at 0.5 µg/µL SM101
[4] = target: aggregated human IgG (aggregated Beriglobin, aggregated fraction isolated by size exclusion chromatography) (human); test: FACS competition on Raji cells (FACS007), inhibition of aggregated IgG binding to cell FcγRIIB at 0.0625 µg/µL SM101
[5] = target: aggregated human IgG (aggregated Beriglobin, aggregated fraction isolated by size exclusion chromatography) (human); test: apparent KD, Langmuir fit of FACS competition on Raji cells (FACS021)
[6] = target: aggregated human IgG (aggregated Beriglobin, aggregated fraction isolated by size exclusion chromatography) (human); test: FACS competition on Raji cells (FACS007), inhibition of aggregated IgG binding to cell FcγRIIB at 0.25 µg/µL SM101
[7] = target: aggregated human IgG (aggregated Beriglobin, aggregated fraction isolated by size exclusion chromatography) (human); test: FACS competition on Raji cells (FACS021), inhibition of aggregated IgG binding to cell FcγRIIB at 0.03125 µg/µL
[8] = target: aggregated human IgG (aggregated Beriglobin, aggregated fraction isolated by size exclusion chromatography) (human); test: apparent KA, Langmuir fit of FACS competition on Raji cells (FACS007)
[9] = target: aggregated human IgG (aggregated Beriglobin, aggregated fraction isolated by size exclusion chromatography) (human); test: FACS competition on Raji cells (FACS007), inhibition of aggregated IgG binding to cell FcγRIIB at 0.125 µg/µL SM101
[10] = target: aggregated human IgG (aggregated Beriglobin, aggregated fraction isolated by size exclusion chromatography) (human); test: FACS competition on Raji cells (FACS007), inhibition of aggregated IgG binding to cell FcγRIIB at 0.0156 µg/µL SM101
[11] = target: aggregated human IgG (aggregated Beriglobin, aggregated fraction isolated by size exclusion chromatography) (human); test: apparent KD, FACS competition on Raji cells, mean of tests #1-17 without #4 and #6
[12] = target: aggregated human IgG (aggregated Beriglobin, aggregated fraction isolated by size exclusion chromatography) (human); test: sigmoid logistic fit of FACS competition on Raji cells (FACS021): inhibition of aggregated IgG binding to cell FcγRIIB
[13] = target: aggregated human IgG (aggregated Beriglobin, aggregated fraction isolated by size exclusion chromatography) (human); test: apparent KD, FACS competition on Raji cells, mean of tests #18-25
[14] = target: aggregated human IgG (aggregated Beriglobin, aggregated fraction isolated by size exclusion chromatography) (human); test: FACS competition on Raji cells (FACS021), inhibition of aggregated IgG binding to cell FcγRIIB at 0.0625 µg/µL
[15] = target: aggregated human IgG (aggregated Beriglobin, aggregated fraction isolated by size exclusion chromatography) (human); test: FACS competition on Raji cells (FACS007), inhibition of aggregated IgG binding to cell FcγRIIB at 0.0078 µg/µL SM101
[16] = target: aggregated human IgG (aggregated Beriglobin, aggregated fraction isolated by size exclusion chromatography) (human); test: apparent KA, Langmuir fit of FACS competition on Raji cells (FACS021)
[17] = target: aggregated human IgG (aggregated Beriglobin, aggregated fraction isolated by size exclusion chromatography) (human); test: apparent KD, Langmuir fit of FACS competition on Raji cells (FACS007)
[18] = target: aggregated human IgG (aggregated Beriglobin, aggregated fraction isolated by size exclusion chromatography) (human); test: sigmoid logistic fit of FACS competition on Raji cells (FACS007): inhibition of aggregated IgG binding to cell FcγRIIB
[19] = target: aggregated human IgG (aggregated Beriglobin, aggregated fraction isolated by size exclusion chromatography) (human); test: FACS competition on Raji cells (FACS007), inhibition of aggregated IgG binding to cell FcγRIIB at 0.03125 µg/µL SM101
[20] = target: aggregated human IgG (aggregated Beriglobin, aggregated fraction isolated by size exclusion chromatography) (human); test: apparent KD, FACS competition on Raji cells, mean of 25 experiments
[21] = target: aggregated human IgG (aggregated Beriglobin, aggregated fraction isolated by size exclusion chromatography) (human); test: FACS competition control on Raji cells: constant aggregated Beriglobin, CSA in place of SM101; bound aggregated IgG detected with anti-human IgG(H+L)-PE; interaction tested for blocking: aggregated IgG with membrane-bound FcγRIIB
[22] = SM101 investigational medicinal product

IC50 [1]: 10.6 µg/mL
Kd [2]: 980 nM
norm. Signal (% inhibition) [3]: 97.3%
norm. Signal (% inhibition) [4]: 91.2%
Kd [5]: 740 nM and 900 nM
norm. Signal (% inhibition) [6]: 98.4%
norm. Signal (% inhibition) [7, 22]: 75.7%
norm. Signal (% inhibition) ([7]; SM101 reference standard): 75.9%
Ka [8]: 1.02e+06 M⁻¹
norm. Signal (% inhibition) [9]: 94.9%
norm. Signal (% inhibition) [10]: 43%
Kd [11]: 680 nM
IC50 [12]: 12.9 µg/mL and 16.2 µg/mL
Kd [13]: 260 nM
norm. Signal (% inhibition) [14, 22]: 89.6%
norm. Signal (% inhibition) ([14]; SM101 reference standard): 87.3%
norm. Signal (% inhibition) [15]: 23.2%
Ka [16]: 1.35e+06 M⁻¹ and 1.11e+06 M⁻¹
Kd [17]: 990 nM
IC50 [18]: 17.7 µg/mL
norm. Signal (% inhibition) [19]: 70.5%
Kd [20]: 530 nM
Molecule: SM101 (soluble human FcγRIIB, sFcγRIIB) (from UniProt P31994 46-217) (receptor)

Median PE-A of aggregated IgG bound to Raji cells at 0.0156 µg/µL CSA [21]: 3770
Median PE-A of aggregated IgG bound to Raji cells at 0.03125 µg/µL CSA [21]: 3700
Median PE-A of aggregated IgG bound to Raji cells at 0.0625 µg/µL CSA [21]: 3830
Median PE-A of aggregated IgG bound to Raji cells at 0.125 µg/µL CSA [21]: 4140
Median PE-A of aggregated IgG bound to Raji cells at 0.25 µg/µL CSA [21]: 4570
Median PE-A of aggregated IgG bound to Raji cells at 0.5 µg/µL CSA [21]: 4940
Median PE-A of aggregated IgG bound to Raji cells at the CSA concentration labelled 0'078 (0.0078 µg/µL by the series in legend paragraph 80) [21]: 4180
B1: chicken serum albumin (protein, UniProt P19121 24-615, looked up)
Albumin: FARDAEHKSEIAHRYNDLKEETFKAVAMITFAQYLQRCSYEGLSKLVKDVVDLAQKCVANEDAPECSKPLPSIILDEICQVEKLRDSYGAMADCCSKADPERNECFLSFKVSQPDFVQPYQRPASDVICQEYQDNRVSFLGHFIYSVARRHPFLYAPAILSFAVDFEHALQSCCKESDVGACLDTKEIVMREKAKGVSVKQQYFCGILKQFGDRVFQARQLIYLSQKYPKAPFSEVSKFVHDSIGVHKECCEGDMVECMDDMARMMSNLCSQQDVFSGKIKDCCEKPIVERSQCIMEAEFDEKPADLPSLVEKYIEDKEVCKSFEAGHDAFMAEFVYEYSRRHPEFSIQLIMRIAKGYESLLEKCCKTDNPAECYANAQEQLNQHIKETQDVVKTNCDLLHDHGEADFLKSILIRYTKKMPQVPTDLLLETGKKMTTIGTKCCQLGEDRRMACSEGYLSIVIHDTCRKQETTPINDNVSQCCSQLYANRRPCFTAMGVDTKYVPPPFNPDMFSFDEKLCSAPAEEREVGQMKLLINLIKRKPQMTEEQIKTIADGFTAMVDKCCKQSDINTCFGEEGANLIVQSRATLGIGA
